Experiments:
Assay in all cases: SPR Biacore T100, 21-4-3 captured on anti-mouse IgG, 500 nM analyte
[1] = target: T1, SEQ ID NO: 49
T1 construct: V5L, I23A, E44G, A49S, A68T, A74S, T78L, W79Y, K83R, T110Q, Q108L
Method: (§1) Binding measurements were performed using a Biacore T100 using a CM5 T120416 sensor chip, with running buffer HBS-EP+, 25° C. […] The anti-mouse IgG used was a polyclonal rabbit anti-mouse IgG antibodies reacting with all IgG subclasses, IgA and IgM (GE Healthcare; Cat #BR-1008-38; Lot #10056316). Immobilisation of the anti-mouse IgG was performed using manual amine coupling using a 7 minute injection of EDC/NHS for activation and a 7 minute injection of 1M ethanolamine HCl pH 8.5 for deactivation (Biacore, amine coupling kit).

[2] = target: T2, SEQ ID NO: 74
T2 construct: no mutations
Method: as §1

[3] = target: T3, SEQ ID NO: 44
T3 construct: no mutations
T3 sequence (chain, as listed by the source): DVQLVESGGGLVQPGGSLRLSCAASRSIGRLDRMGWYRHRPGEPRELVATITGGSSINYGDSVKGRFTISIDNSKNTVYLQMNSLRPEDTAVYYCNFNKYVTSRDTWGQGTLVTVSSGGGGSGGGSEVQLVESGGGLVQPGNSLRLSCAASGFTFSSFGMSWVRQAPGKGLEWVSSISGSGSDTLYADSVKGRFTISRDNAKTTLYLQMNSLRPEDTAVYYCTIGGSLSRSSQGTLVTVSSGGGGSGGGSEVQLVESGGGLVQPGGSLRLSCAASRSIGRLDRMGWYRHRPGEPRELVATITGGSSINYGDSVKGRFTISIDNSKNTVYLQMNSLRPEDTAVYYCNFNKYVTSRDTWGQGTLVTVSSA
Method: as §1

[4] = target: T4, SEQ ID NO: 79
T4 construct: no mutations
Method: as §1

[5] = target: T5, SEQ ID NO: 70
T5 construct: T110Q
Method: as §1

[6] = target: T6, SEQ ID NO: 64
T6 construct: no mutations
T6 sequence (chain, as listed by the source): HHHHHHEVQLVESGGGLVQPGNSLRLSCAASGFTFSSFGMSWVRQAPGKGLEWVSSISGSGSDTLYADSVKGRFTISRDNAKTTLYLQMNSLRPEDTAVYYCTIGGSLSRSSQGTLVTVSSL
Method: as §1

[7] = target: T7, SEQ ID NO: 68
T7 construct: P14A, L108Q
T7 sequence (VHH, as listed by the source): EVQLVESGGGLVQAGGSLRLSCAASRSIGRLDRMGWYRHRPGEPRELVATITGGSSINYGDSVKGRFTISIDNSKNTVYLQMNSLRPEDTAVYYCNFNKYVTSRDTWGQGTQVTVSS
Method: as §1

[8] = target: T8, SEQ ID NO: 40
T8 construct: no mutations
T8 sequence (chain, as listed by the source): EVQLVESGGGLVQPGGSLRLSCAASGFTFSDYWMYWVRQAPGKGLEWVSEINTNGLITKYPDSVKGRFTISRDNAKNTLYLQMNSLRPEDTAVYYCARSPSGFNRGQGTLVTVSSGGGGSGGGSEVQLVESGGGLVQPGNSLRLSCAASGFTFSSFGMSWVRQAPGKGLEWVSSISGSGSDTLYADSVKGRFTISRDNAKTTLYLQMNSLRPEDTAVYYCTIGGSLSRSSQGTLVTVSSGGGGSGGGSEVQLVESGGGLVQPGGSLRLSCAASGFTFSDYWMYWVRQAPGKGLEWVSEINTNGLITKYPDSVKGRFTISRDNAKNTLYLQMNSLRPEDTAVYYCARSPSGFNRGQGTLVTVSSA
Method: as §1

[9] = target: T9, SEQ ID NO: 69
T9 construct: L108Q
Method: as §1

[10] = target: T10, SEQ ID NO: 72
T10 construct: S112G, S113G
T10 sequence (VHH, as listed by the source): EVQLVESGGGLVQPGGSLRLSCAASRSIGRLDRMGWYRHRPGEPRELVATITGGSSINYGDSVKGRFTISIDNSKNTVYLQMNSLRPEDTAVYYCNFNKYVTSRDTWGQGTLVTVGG
Method: as §1

[11] = target: T11, SEQ ID NO: 43
T11 construct: no mutations
T11 sequence (chain, as listed by the source): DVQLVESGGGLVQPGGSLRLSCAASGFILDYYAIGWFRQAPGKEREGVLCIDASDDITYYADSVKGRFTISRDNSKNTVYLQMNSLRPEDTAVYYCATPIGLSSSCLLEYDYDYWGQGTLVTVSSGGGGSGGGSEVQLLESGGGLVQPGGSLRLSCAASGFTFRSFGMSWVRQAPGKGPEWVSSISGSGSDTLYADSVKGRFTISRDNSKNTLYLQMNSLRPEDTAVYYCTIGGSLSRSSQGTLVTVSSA
Method: as §1

[12] = target: T12, SEQ ID NO: 38
T12 construct: no mutations
T12 sequence (chain, as listed by the source): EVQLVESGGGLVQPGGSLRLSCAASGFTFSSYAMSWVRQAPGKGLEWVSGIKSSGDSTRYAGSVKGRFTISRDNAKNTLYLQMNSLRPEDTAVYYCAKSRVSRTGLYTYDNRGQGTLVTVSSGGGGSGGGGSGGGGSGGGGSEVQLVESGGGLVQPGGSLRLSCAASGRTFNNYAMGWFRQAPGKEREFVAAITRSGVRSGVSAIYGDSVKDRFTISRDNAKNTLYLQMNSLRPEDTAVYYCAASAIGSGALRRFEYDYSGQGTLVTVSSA
Method: as §1

[13] = target: T13, SEQ ID NO: 67
T13 construct: R83K
T13 sequence (VHH, as listed by the source): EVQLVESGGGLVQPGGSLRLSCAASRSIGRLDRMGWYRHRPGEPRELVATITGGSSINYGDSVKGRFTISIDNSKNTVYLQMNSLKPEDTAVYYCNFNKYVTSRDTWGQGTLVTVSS
Method: as §1

[14] = target: T14, SEQ ID NO: 83
T14 construct: T87A
T14 sequence (VHH, as listed by the source): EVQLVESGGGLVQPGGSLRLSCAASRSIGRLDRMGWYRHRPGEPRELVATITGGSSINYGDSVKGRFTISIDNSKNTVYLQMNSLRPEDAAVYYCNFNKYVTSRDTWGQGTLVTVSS
Method: as §1

[15] = target: T15, SEQ ID NO: 45
T15 construct: P14A, P41T, S62F, S74A, S82bN, R83K, L108Q
T15 sequence (VHH, as listed by the source): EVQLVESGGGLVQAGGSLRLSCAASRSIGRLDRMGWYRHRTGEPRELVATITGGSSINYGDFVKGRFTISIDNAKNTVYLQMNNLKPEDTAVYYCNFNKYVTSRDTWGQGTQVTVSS
Method: as §1

[16] = target: T16, SEQ ID NO: 58
T16 construct: no mutations
T16 sequence (chain, as listed by the source): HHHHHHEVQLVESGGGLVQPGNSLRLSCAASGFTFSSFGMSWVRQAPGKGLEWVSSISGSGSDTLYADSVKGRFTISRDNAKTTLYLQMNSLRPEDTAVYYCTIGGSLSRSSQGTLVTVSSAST
Method: as §1

[17] = target: T17, SEQ ID NO: 62
T17 construct: no mutations
T17 sequence (chain, as listed by the source): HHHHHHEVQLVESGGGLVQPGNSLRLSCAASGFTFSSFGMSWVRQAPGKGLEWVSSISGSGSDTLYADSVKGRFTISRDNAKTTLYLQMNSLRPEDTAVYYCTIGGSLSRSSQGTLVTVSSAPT
Method: as §1

[18] = target: T18, SEQ ID NO: 41
T18 construct: no mutations
T18 sequence (chain, as listed by the source): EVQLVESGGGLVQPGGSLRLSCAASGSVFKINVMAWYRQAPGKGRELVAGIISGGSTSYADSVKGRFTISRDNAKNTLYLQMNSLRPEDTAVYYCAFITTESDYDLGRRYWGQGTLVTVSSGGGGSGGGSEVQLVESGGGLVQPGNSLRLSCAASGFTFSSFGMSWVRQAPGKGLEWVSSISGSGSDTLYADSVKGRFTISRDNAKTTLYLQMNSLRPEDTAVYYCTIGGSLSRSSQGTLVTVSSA
Method: as §1

[19] = target: T19, SEQ ID NO: 73
T19 construct: S112G, S113G
Method: as §1

[20] = target: T20, SEQ ID NO: 66
T20 construct: L11S
Method: as §1

[21] = target: T21, SEQ ID NO: 89
T21 construct: L11S, P14A, T110Q, S112G, S113G
Method: as §1

[22] = target: T22, SEQ ID NO: 37
T22 construct: no mutations
T22 sequence (chain, as listed by the source): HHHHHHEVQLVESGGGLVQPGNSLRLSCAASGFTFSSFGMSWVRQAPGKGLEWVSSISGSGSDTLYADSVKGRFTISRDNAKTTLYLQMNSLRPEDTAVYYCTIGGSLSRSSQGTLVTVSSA
Method: as §1

[23] = target: T23, SEQ ID NO: 71
T23 construct: S113G
Method: as §1

[24] = target: T24, SEQ ID NO: 63
T24 construct: no mutations
T24 sequence (chain, as listed by the source): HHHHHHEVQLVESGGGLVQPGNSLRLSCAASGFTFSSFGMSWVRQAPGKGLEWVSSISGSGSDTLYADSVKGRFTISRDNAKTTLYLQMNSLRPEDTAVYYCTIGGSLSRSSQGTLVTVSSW
Method: as §1

[25] = target: T25, SEQ ID NO: 48
T25 construct: no mutations
Method: as §1

[26] = target: T26, SEQ ID NO: 39
T26 construct: no mutations
T26 sequence (chain, as listed by the source): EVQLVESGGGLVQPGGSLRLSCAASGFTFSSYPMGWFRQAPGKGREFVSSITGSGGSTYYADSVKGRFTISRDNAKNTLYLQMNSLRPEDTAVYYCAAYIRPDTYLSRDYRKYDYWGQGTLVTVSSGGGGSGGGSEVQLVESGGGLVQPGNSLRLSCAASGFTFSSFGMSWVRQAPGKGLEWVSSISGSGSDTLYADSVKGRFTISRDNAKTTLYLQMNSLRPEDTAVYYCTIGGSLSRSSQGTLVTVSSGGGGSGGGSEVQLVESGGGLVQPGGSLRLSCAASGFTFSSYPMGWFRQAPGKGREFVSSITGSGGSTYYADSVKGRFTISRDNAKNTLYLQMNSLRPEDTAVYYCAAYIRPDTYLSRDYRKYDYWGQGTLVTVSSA
Method: as §1

[27] = target: T27, SEQ ID NO: 65
T27 construct: P14A
Method: as §1

[28] = target: T28, SEQ ID NO: 84
T28 construct: S112G
Method: as §1

[29] = target: T29, SEQ ID NO: 86
T29 construct: L11S, T110Q
Method: as §1

[30] = target: T30, SEQ ID NO: 81
T30 construct: L11V
T30 sequence (VHH, as listed by the source): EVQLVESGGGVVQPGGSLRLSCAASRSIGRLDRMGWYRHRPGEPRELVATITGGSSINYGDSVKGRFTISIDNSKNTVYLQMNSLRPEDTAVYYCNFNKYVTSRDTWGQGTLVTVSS
Method: as §1

[31] = target: T31, SEQ ID NO: 42
T31 construct: no mutations
T31 sequence (chain, as listed by the source): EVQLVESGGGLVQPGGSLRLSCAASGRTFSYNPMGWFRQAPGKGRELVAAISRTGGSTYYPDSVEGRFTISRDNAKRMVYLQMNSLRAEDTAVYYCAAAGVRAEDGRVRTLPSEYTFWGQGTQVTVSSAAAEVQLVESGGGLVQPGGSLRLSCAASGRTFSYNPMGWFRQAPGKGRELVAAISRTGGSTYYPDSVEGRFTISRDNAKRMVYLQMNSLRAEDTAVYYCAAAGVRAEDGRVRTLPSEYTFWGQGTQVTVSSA
Method: as §1

[32] = target: T32, SEQ ID NO: 87
T32 construct: L11S, S112G, S113G
Method: as §1

[33] = target: T33, SEQ ID NO: 78
T33 construct: Q13R
Method: as §1

[34] = target: T34, SEQ ID NO: 85
T34 construct: L11S, T110Q, S112G, S113G
Method: as §1

[35] = target: T35, SEQ ID NO: 47
T35 construct: no mutations
T35 sequence (VHH, as listed by the source): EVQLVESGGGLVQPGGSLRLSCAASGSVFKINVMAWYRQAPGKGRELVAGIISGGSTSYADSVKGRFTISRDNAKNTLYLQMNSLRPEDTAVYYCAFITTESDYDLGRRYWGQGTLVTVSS
Method: as §1

[36] = target: T36, SEQ ID NO: 80
T36 construct: T110Q, S112G, S113G
Method: as §1

[37] = target: T37, SEQ ID NO: 55
T37 construct: no mutations
Method: as §1

[38] = target: T38, SEQ ID NO: 76
T38 construct: no mutations
Method: as §1

[39] = target: T39, SEQ ID NO: 75
T39 construct: no mutations
Method: as §1

[40] = target: T40, SEQ ID NO: 61
T40 construct: no mutations
Method: as §1

[41] = target: T41, SEQ ID NO: 59
T41 construct: no mutations
T41 sequence (chain, as listed by the source): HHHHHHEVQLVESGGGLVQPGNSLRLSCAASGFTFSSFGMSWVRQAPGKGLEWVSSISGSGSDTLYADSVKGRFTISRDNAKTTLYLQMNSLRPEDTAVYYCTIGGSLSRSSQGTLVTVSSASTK
Method: as §1

[42] = target: T42, SEQ ID NO: 52
T42 construct: S112G
Method: as §1

[43] = target: T43, SEQ ID NO: 88
T43 construct: L11S, T110Q
Method: as §1

[44] = target: T44, SEQ ID NO: 82
T44 construct: P84A
T44 sequence (VHH, as listed by the source): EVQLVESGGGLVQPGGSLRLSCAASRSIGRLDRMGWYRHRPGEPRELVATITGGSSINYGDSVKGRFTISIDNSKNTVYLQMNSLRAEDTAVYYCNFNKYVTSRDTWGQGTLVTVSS
Method: as §1

[45] = target: T45, SEQ ID NO: 57
T45 construct: no mutations
T45 sequence (chain, as listed by the source): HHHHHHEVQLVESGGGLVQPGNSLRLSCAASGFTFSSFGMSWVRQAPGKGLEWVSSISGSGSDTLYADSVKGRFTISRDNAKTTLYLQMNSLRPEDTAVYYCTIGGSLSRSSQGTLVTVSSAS
Method: as §1

[46] = target: T46, SEQ ID NO: 60
T46 construct: no mutations
T46 sequence (chain, as listed by the source): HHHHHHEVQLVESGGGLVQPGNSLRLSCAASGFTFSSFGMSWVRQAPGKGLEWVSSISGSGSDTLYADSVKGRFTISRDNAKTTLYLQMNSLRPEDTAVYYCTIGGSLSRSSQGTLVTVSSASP
Method: as §1

[47] = target: T47, SEQ ID NO: 77
T47 construct: no mutations
Method: as §1

T1 sequence (VHH, as listed by the source): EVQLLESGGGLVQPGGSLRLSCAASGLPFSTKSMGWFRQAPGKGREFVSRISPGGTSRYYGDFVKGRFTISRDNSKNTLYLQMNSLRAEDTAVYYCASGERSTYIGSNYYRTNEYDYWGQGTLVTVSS

B1: monoclonal antibody 21-4-3 (antibody, V domains shown)
VH: QIQLVQSGPELKKPGETVKISCKASGYTFTAYSMHWVKQAPGKGLKWMGWINTVTGEPAYADDFKGRFAFSLETSASTAYLQISSLKNEDTATYFCTRGLIHFYYWGQGTTLTVSS
VL: DIQMTQTPSSLSASLGGRVTITCKASQDIHNFISWYQHKPGKVPRLIIHDTSTLQPGIPSRFSGSGSGRDYSFSITNLEPEDIATYYCLHYDNLLRSFGGGTKLEIKR
notes: also called mAb21-4-3; mAb 21-4-3
binding level as % of reference sequence (=100%) [1]: 4% | binding level as % of reference sequence (=100%) [2]: 1% | binding level as % of reference sequence (=100%) [3]: 1% | binding level as % of reference sequence (=100%) [4]: 2% | binding level as % of reference sequence (=100%) [5]: 106% | binding level as % of reference sequence (=100%) [6]: 6% | binding level as % of reference sequence (=100%) [7]: 26% | binding level as % of reference sequence (=100%) [8]: 1% | binding level as % of reference sequence (=100%) [9]: 106% | binding level as % of reference sequence (=100%) [10]: 45% | binding level as % of reference sequence (=100%) [11]: 3% | binding level as % of reference sequence (=100%) [12]: 0% | binding level as % of reference sequence (=100%) [13]: 101% | binding level as % of reference sequence (=100%) [14]: 79% | binding level as % of reference sequence (=100%) [15]: 22% | binding level as % of reference sequence (=100%) [16]: 6% | binding level as % of reference sequence (=100%) [17]: 6% | binding level as % of reference sequence (=100%) [18]: 7% | binding level as % of reference sequence (=100%) [19]: 1% | binding level as % of reference sequence (=100%) [20]: 48% | binding level as % of reference sequence (=100%) [21]: 2% | binding level as % of reference sequence (=100%) [22]: 7% | binding level as % of reference sequence (=100%) [23]: 44% | binding level as % of reference sequence (=100%) [24]: 3% | binding level as % of reference sequence (=100%) [25]: 3% | binding level as % of reference sequence (=100%) [26]: 0% | binding level as % of reference sequence (=100%) [27]: 23% | binding level as % of reference sequence (=100%) [28]: 91% | binding level as % of reference sequence (=100%) [29]: 64% | binding level as % of reference sequence (=100%) [30]: 75% | binding level as % of reference sequence (=100%) [31]: 0% | binding level as % of reference sequence (=100%) [32]: 41% | binding level as % of reference sequence (=100%) [33]: 1% | binding level as % of reference sequence (=100%) [34]: 32% | binding level as % of reference sequence (=100%) [35]: 4% | binding level as % of reference sequence (=100%) [36]: 51% | binding level as % of reference sequence (=100%) [37]: 6% | binding level as % of reference sequence (=100%) [38]: 2% | binding level as % of reference sequence (=100%) [39]: 1% | binding level as % of reference sequence (=100%) [40]: 6% | binding level as % of reference sequence (=100%) [41]: 6% | binding level as % of reference sequence (=100%) [42]: 100% | binding level as % of reference sequence (=100%) [43]: 1% | binding level as % of reference sequence (=100%) [44]: 56% | binding level as % of reference sequence (=100%) [45]: 6% | binding level as % of reference sequence (=100%) [46]: 6% | binding level as % of reference sequence (=100%) [47]: 1%
